# Data as given in patent US8013137B2, “Modified enteropeptidase protein” (National University Corporation Hokkaido University, priority 2006, dated 2011).
# Key:
# [1] = substrate: Cc1cc(=O)oc2cc(NC(=O)[C@H](CCCNC(=N)N)NC(=O)[C@H](Cc3ccccc3)NC(=O)[C@@H]3CCCN3)ccc12; assay: purified protein, by the assay type
# Description: (§1) Expression of the recombinant Medaka EP catalytic domain in the Escherichia coli expression system was carried out as described previously (Ogiwara et al., Proc. Natl. Acad. Sci. USA, 102:8442-8447 (2005)). The Medaka EP catalytic domain was produced as a fusion protein with an extra amino acid sequence of 50 residues at its N-terminus; the vector-derived N-terminal stretch contained a His-tag and an S-protein sequence. Harvested cells were lysed and the insoluble materials were dissolved in a solubilization buffer containing 6 M urea, 50 mM Tris.HCl (pH 7.6), and 0.5 M NaCl. […] Eluted recombinant proteins were renatured by dialysis against 50 mM Tris.HCl (pH 8.0). The fusion protein was then incubated in 50 mM Tris.HCl (pH 8.0) containing 0.5 M NaCl with trypsin immobilized on Sepharose 4B at room temperature for 1 h. The immobilized trypsin was then removed by filtration.
# (§2) Site-directed mutagenesis of Medaka EP-1 was carried out to produce various mutant proteases. […] The subsequent procedures for preparation of mutant proteases were the same as for the wild-type protein described above. The active recombinant protein concentrations were determined using the active site titrant p-nitrophenyl-p′-guanidinobenzoate HCl (Sigma) using the method described previously (Chase et al., Biochem. Biophys. Res. Commun., 29:508-514 (1976)).
# (§3) Enzyme activity for various 4-methylcoumaryl-7-amide (MCA)-containing peptide substrates was determined by the method of Barrett (Barrett et al., J., Biochem. J., 187:909-912 (1980)). For kinetic studies, initial velocities, extrapolated from the plot of product versus time, were transformed into double-reciprocal plots (Lineweaver et al., J. Am. Chem. Soc., 56:658-663 (1934)). The maximum velocities (Vmax) and Km and kcat values were obtained from the intercepts of these plots.
# [2] = substrate: Cc1cc(=O)oc2cc(NC(=O)[C@H](CCCNC(=N)N)NC(=O)[C@H](C)NC(=O)[C@H](CCC(=O)OCc3ccccc3)NC(=O)OC(C)(C)C)ccc12; assay: purified protein, by the assay type
# Description: as §1, §2, §3
# [3] = substrate: Cc1cc(=O)oc2cc(NC(=O)[C@H](CCCNC(=N)N)NC(=O)[C@H](Cc3ccccc3)NC(=O)OCc3ccccc3)ccc12; assay: purified protein, by the assay type
# Description: as §1, §2, §3
# [4] = substrate: Cc1cc(=O)oc2cc(NC(=O)[C@H](CCCNC(=N)N)NC(=O)[C@H](Cc3ccccc3)NC(=O)[C@@H]3CCCN3)ccc12; assay: Kinetic parameters for MCA-containing peptide substrates, porcine EP; format: biochemical; conditions: other: Porcine
# [5] = substrate: Cc1cc(=O)oc2cc(NC(=O)[C@H](CCCNC(=N)N)NC(=O)[C@H](C)NC(=O)[C@H](CCC(=O)OCc3ccccc3)NC(=O)OC(C)(C)C)ccc12; assay: as above; format: biochemical; conditions: other: Porcine
# [6] = substrate: Cc1cc(=O)oc2cc(NC(=O)[C@H](CCCNC(=N)N)NC(=O)[C@H](Cc3ccccc3)NC(=O)OCc3ccccc3)ccc12; assay: as above; format: biochemical; conditions: other: Porcine
# [7] = substrate: Cc1cc(=O)oc2cc(NC(=O)[C@H](CCCNC(=N)N)NC(=O)[C@H](Cc3ccccc3)NC(=O)[C@@H]3CCCN3)ccc12; assay: Kinetic parameters for MCA-containing peptide substrates, EP-1(WT); format: biochemical, Japanese Medaka (Oryzias latipes); conditions: other: EP-1(WT)
# [8] = substrate: Cc1cc(=O)oc2cc(NC(=O)[C@H](CCCNC(=N)N)NC(=O)[C@H](C)NC(=O)[C@H](CCC(=O)OCc3ccccc3)NC(=O)OC(C)(C)C)ccc12; assay: as above; format: biochemical, Japanese Medaka (Oryzias latipes); conditions: other: EP-1(WT)
# [9] = substrate: Cc1cc(=O)oc2cc(NC(=O)[C@H](CCCNC(=N)N)NC(=O)[C@H](Cc3ccccc3)NC(=O)OCc3ccccc3)ccc12; assay: as above; format: biochemical, Japanese Medaka (Oryzias latipes); conditions: other: EP-1(WT)
protein,measurement,setting,value
"medaka EP-1 enteropeptidase serine protease domain (parent SEQ ID NO: 2), variant T105E (Oryzias latipes; T882E) (protein) VVGGVNAEKGAWPWMVSLHWRGRHGCGASLIGRDWLLTAAHCVYGKNTHLQYWSAVLGLHAQSSMNSQEVQIRQVDRIIINKNYNRREKEADIAMMHLQQPVNFTEWVLPVCLASEDQHFPAGRRCFIAGWGRDAEGGSLPDILQEAEVPLVDQDECQRLLPEYTFTSSMLCAGYPEGGVDSCQGDSGGPLMCLEDARWTLIGVTSFGVGCGRPERPGAYARVSAFTSWIAETRRSSFSDLD",Km,[1]; other: T105E,1300 µM
same,kcat,[1]; other: T105E,0.267 s⁻¹
same,kcat/Km,[1]; other: T105E,200 M⁻¹ s⁻¹
same,Km,[2]; other: T105E,1300 µM
same,kcat,[2]; other: T105E,0.183 s⁻¹
same,kcat/Km,[2]; other: T105E,150 M⁻¹ s⁻¹
same,Km,[3]; other: T105E,100 µM
same,kcat,[3]; other: T105E,0.0333 s⁻¹
same,kcat/Km,[3]; other: T105E,333 M⁻¹ s⁻¹
"medaka EP-1 enteropeptidase serine protease domain (parent SEQ ID NO: 2), variant E173A, SEQ ID NO: 4 (Oryzias latipes; E950A) (protein) VVGGVNAEKGAWPWMVSLHWRGRHGCGASLIGRDWLLTAAHCVYGKNTHLQYWSAVLGLHAQSSMNSQEVQIRQVDRIIINKNYNRRTKEADIAMMHLQQPVNFTEWVLPVCLASEDQHFPAGRRCFIAGWGRDAEGGSLPDILQEAEVPLVDQDACQRLLPEYTFTSSMLCAGYPEGGVDSCQGDSGGPLMCLEDARWTLIGVTSFGVGCGRPERPGAYARVSAFTSWIAETRRSSFSDLD",Km,[1]; other: E173A,1000 µM
same,kcat,[1]; other: E173A,0.153 s⁻¹
same,kcat/Km,[1]; other: E173A,150 M⁻¹ s⁻¹
same,Km,[2]; other: E173A,1000 µM
same,kcat,[2]; other: E173A,0.167 s⁻¹
same,kcat/Km,[2]; other: E173A,167 M⁻¹ s⁻¹
same,Km,[3]; other: E173A,400 µM
same,kcat,[3]; other: E173A,0.0383 s⁻¹
same,kcat/Km,[3]; other: E173A,100 M⁻¹ s⁻¹
"medaka EP-1 enteropeptidase serine protease domain (parent SEQ ID NO: 2), variant P193E (Oryzias latipes; P970E) (protein) CGQRQVYNSKENNGVPRVVGGVNAEKGAWPWMVSLHWRGRHGCGASLIGRDWLLTAAHCVYGKNTHLQYWSAVLGLHAQSSMNSQEVQIRQVDRIIINKNYNRRTKEADIAMMHLQQPVNFTEWVLPVCLASEDQHFPAGRRCFIAGWGRDAEGGSLPDILQEAEVPLVDQDECQRLLPEYTFTSSMLCAGYEEGGVDSCQGDSGGPLMCLEDARWTLIGVTSFGVGCGRPERPGAYARVSAFTSWIAETRRSSFSDLD",Km,[1]; other: P193E,1000 µM
same,kcat,[1]; other: P193E,0.45 s⁻¹
same,kcat/Km,[1]; other: P193E,450 M⁻¹ s⁻¹
same,Km,[2]; other: P193E,200 µM
same,kcat,[2]; other: P193E,0.0383 s⁻¹
same,kcat/Km,[2]; other: P193E,200 M⁻¹ s⁻¹
same,Km,[3]; other: P193E,200 µM
same,kcat,[3]; other: P193E,0.0283 s⁻¹
same,kcat/Km,[3]; other: P193E,150 M⁻¹ s⁻¹
porcine EP serine protease domain (Ile800 to His1034) (Sus scrofa) (protein) IVGGNDSREGAWPWVVALYYNGQLLCGASLVSRDWLVSAAHCVYGRNLEPSKWKAILGLHMTSNLTSPQIVTRLIDEIVINPHYNRRRKDSDIAMMHLEFKVNYTDYIQPICLPEENQVFPPGRICSIAGWGKVIYQGSPADILQEADVPLLSNEKCQQQMPEYNITENMMCAGYEEGGIDSCQGDSGGPLMCLENNRWLLAGVTSFGYQCALPNRPGVYARVPKFTEWIQSFLH,Km,[4],3900 µM
same,kcat,[4],5 s⁻¹
same,kcat/Km,[4],1280 M⁻¹ s⁻¹
same,Km,[5],300 µM
same,kcat,[5],1.83 s⁻¹
same,kcat/Km,[5],6170 M⁻¹ s⁻¹
same,Km,[6],200 µM
same,kcat,[6],0.917 s⁻¹
same,kcat/Km,[6],4670 M⁻¹ s⁻¹
"medaka EP-1 enteropeptidase serine protease domain, wild type, SEQ ID NO: 2 (Oryzias latipes) (protein) VVGGVNAEKGAWPWMVSLHWRGRHGCGASLIGRDWLLTAAHCVYGKNTHLQYWSAVLGLHAQSSMNSQEVQIRQVDRIIINKNYNRRTKEADIAMMHLQQPVNFTEWVLPVCLASEDQHFPAGRRCFIAGWGRDAEGGSLPDILQEAEVPLVDQDECQRLLPEYTFTSSMLCAGYPEGGVDSCQGDSGGPLMCLEDARWTLIGVTSFGVGCGRPERPGAYARVSAFTSWIAETRRSSFSDLD",Km,[7],10000 µM
same,kcat,[7],2.33 s⁻¹
same,kcat/Km,[7],233 M⁻¹ s⁻¹
same,Km,[8],200 µM
same,kcat,[8],0.112 s⁻¹
same,kcat/Km,[8],567 M⁻¹ s⁻¹
same,Km,[9],100 µM
same,kcat,[9],0.0483 s⁻¹
same,kcat/Km,[9],483 M⁻¹ s⁻¹
"medaka EP-1 enteropeptidase serine protease domain (parent SEQ ID NO: 2), variant K63R (Oryzias latipes; K840R) (protein) CGQRQVYNSKENNGVPRVVGGVNAEKGAWPWMVSLHWRGRHGCGASLIGRDWLLTAAHCVYGRNTHLQYWSAVLGLHAQSSMNSQEVQIRQVDRIIINKNYNRRTKEADIAMMHLQQPVNFTEWVLPVCLASEDQHFPAGRRCFIAGWGRDAEGGSLPDILQEAEVPLVDQDECQRLLPEYTFTSSMLCAGYPEGGVDSCQGDSGGPLMCLEDARWTLIGVTSFGVGCGRPERPGAYARVSAFTSWIAETRRSSFSDLD",Km,[1]; other: K63R,1100 µM
same,kcat,[1]; other: K63R,0.183 s⁻¹
same,kcat/Km,[1]; other: K63R,167 M⁻¹ s⁻¹
same,Km,[2]; other: K63R,1200 µM
same,kcat,[2]; other: K63R,0.2 s⁻¹
same,kcat/Km,[2]; other: K63R,167 M⁻¹ s⁻¹
same,Km,[3]; other: K63R,100 µM
same,kcat,[3]; other: K63R,0.0233 s⁻¹
same,kcat/Km,[3]; other: K63R,233 M⁻¹ s⁻¹
